Experimental data as given in paper PMC4865318 (Molecular Biology of the Cell, 2016).

T1: MBP-UNC-15 (294–376) (C. elegans, UniProt P10567 294-376)
T1 sequence (looked up): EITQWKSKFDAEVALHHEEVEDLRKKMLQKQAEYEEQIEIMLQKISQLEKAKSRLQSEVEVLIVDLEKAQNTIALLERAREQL

T2: MBP-UNC-15 (221–873) (C. elegans, UniProt P10567 221-872)
T2 sequence (looked up): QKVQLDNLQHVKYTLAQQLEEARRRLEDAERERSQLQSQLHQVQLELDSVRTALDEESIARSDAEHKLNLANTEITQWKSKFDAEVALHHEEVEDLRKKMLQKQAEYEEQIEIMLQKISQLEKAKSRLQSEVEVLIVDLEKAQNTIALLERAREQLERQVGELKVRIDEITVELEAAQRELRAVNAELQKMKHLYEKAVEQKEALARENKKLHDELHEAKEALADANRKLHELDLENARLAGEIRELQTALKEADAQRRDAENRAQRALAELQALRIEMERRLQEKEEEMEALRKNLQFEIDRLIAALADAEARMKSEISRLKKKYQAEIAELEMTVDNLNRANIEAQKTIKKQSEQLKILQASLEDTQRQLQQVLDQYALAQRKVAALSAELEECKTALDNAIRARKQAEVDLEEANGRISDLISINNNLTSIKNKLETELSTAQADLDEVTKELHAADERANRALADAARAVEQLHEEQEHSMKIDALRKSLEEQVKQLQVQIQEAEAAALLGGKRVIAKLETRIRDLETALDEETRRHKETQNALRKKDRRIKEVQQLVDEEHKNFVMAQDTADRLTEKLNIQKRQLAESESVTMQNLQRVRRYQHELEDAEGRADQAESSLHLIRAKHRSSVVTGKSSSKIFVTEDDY

B1: GST-UNC-89 (58–131) (domain or fragment, C. elegans, UniProt O01761 58-131, looked up)
chain: AGSESRSYPVYIAIQDYTPDKEDVEAIPLEQGQIVEVLDKKNSVRWLVRTKARPPRSGWVPGSYFETPTEFYKQ
B2: GST-UNC-89 (1–151) (domain or fragment, C. elegans, UniProt O01761 1-151, looked up)
chain: MASRRQKQFDRKYSSYRKFTATEDVNYSTHSSRSSYRSESLTSRTDGRGRSTSSEIIAGSESRSYPVYIAIQDYTPDKEDVEAIPLEQGQIVEVLDKKNSVRWLVRTKARPPRSGWVPGSYFETPTEFYKQRRRTREIENVSLSDEQAALV
B3: GST-UNC-89 (1–500) (domain or fragment, C. elegans, UniProt O01761 1-500, looked up)
chain: MASRRQKQFDRKYSSYRKFTATEDVNYSTHSSRSSYRSESLTSRTDGRGRSTSSEIIAGSESRSYPVYIAIQDYTPDKEDVEAIPLEQGQIVEVLDKKNSVRWLVRTKARPPRSGWVPGSYFETPTEFYKQRRRTREIENVSLSDEQAALVKRDQVYHELLRSEEEFVSSLRTCVDDYIKVLDDPEVPEAVKKNREELTLNIPELYNFHANVMLKGLNYYSDDPGKVGQTFVRLEKDFESHVEFYKQYADTLKLLEEPEIKRFFEGLSAKNDAGASSFVDHVKEIADRMVQYQNYFKEFVKYSARAHGSSKSIQKALELVTTIPQRVHDLEFTNNLKQHPGDTGKLGRIIRHDAFQVWEGDEPPKLRYVFLFRNKIMFTEQDASTSPPSYTHYSSIRLDKYNIRQHTTDEDTIVLQPQEPGLPSFRIKPKDFETSEYVRKAWLRDIAEEQEKYAAERDAISMTATSEMTASSVDFDMNASDQQSEFSEWSGSRKSSLFPG

Assays:
MBP-UNC-15 (294–376) = biological target: T1, MBP-UNC-15 (294–376); assay: BLI
MBP-UNC-15 (221–873) = biological target: T2, MBP-UNC-15 (221–873); assay: far-Western

Binder | Kd (MBP-UNC-15 (294–376)) [nM] | koff (MBP-UNC-15 (294–376)) [s⁻¹] | kon (MBP-UNC-15 (294–376)) [M⁻¹ s⁻¹] | binding result (MBP-UNC-15 (221–873))
B1 | 1100 | 0.00015 | 143 | 
B2 |  |  |  | binds
B3 |  |  |  | binds
